Laboratory results published in US20200347144A1 (SHANGHAI HYAMAB BIOTECH, published 2020).
One block for each binder: values may come before it.

Tests used:
[1] = biological target: T1, human 4-1BB, full length, on transfected cells (human, UniProt Q07011 24-255); test: FACS, CHOK1-h4-1BB cells; Ab 2 ug/ml
T1 construct: whole, on cells; also called CHOK1-h4-1BB
From the text: (§1) The pIRES plasmid carrying the full-length gene of monkey-derived […] (the preparation method is the same as the preparation method of the pCpC vector carrying the human-derived IgG Fc fragment (hFc) in “Preparation of immunogen A” of the step (1) in Example 1, in which the database accession number of the amino acid sequence of the extracellular region of monkey 4-1BB protein (Phe19-Thr239) is G7PSE7) was transfected into CHOK1 cell line to obtain CHOK1 stable transfected cell line containing monkey 4-1BB (herein referred to as CHOK1-c4-1BB stable cell line). The CHOK1-h4-1BB stable cell line and the CHOK1-c4-1BB stable cell line were expanded and cultivated to 90% confluence in T-75 cell culture flasks. The medium was exhausted, and washed twice with HBSS buffer (Hanks Balanced Salt Solution, purchased from Invitrogen), and then the cells were treated and collected with enzyme-free cell dissociation solution (Versene solution, purchased from Life Technology). The cells were washed twice with HBSS buffer, and after cell counting, the cells were diluted with HBSS buffer to 2×10⁶ cells per ml, and 1% goat serum blocking solution was added, the percentage being the mass percentage. It was incubated on ice for 30 minutes, and then washed twice with HBSS buffer by centrifugation. The collected cells were suspended in FACS buffer (HBSS containing 1% BSA, the percentage was the mass percentage) to 2×10⁶ cells/mL, and 100 μl per well was added to a 96-well FACS reaction plate. The purified 4-1BB antibody test sample obtained in Example 2 was added, 100 microliters per well and incubated on ice for 2 hours. […] It was washed three times with FACS buffer by centrifugation, and 100 μl of fixative [4% (v/v) paraformaldehyde] per well was added to suspend cells, and washed twice with FACS buffer after 10 minutes by centrifugation. The cells were suspended with 100 microliters of FACS buffer, and the results were detected and analyzed with FACS (FACS Calibur, purchased from BD).

[2] = biological target: T2, monkey 4-1BB on CHOK1 cells (monkey); test: FACS, CHOK1-c4-1BB cells; Ab 2 ug/ml
T2 construct: whole, on cells; also called CHOK1-c4-1BB
From the text: as §1

[3] = biological target: T1, human 4-1BB, full length, on …; test: FACS, CHOK1-h4-1BB cells; Ab 10 ug/ml
From the text: as §1

[4] = biological target: T2, monkey 4-1BB on CHOK1 cells; test: FACS, CHOK1-c4-1BB cells; Ab 10 ug/ml
From the text: as §1

[5] = biological target: T1, human 4-1BB, full length, on …; test: FACS, CHOK1-h4-1BB cells; Ab 0.4 ug/ml
From the text: as §1

[6] = biological target: T2, monkey 4-1BB on CHOK1 cells; test: FACS, CHOK1-c4-1BB cells; Ab 0.4 ug/ml
From the text: as §1

[7] = biological target: T1, human 4-1BB, full length, on …; test: FACS, CHOK1-h4-1BB cells; Ab 0.08 ug/ml
From the text: as §1

[8] = biological target: T2, monkey 4-1BB on CHOK1 cells; test: FACS, CHOK1-c4-1BB cells; Ab 0.08 ug/ml
From the text: as §1

[9] = biological target: T1, human 4-1BB, full length, on …; test: FACS, CHOK1-h4-1BB cells; Ab 0.016 ug/ml
From the text: as §1

[10] = biological target: T2, monkey 4-1BB on CHOK1 cells; test: FACS, CHOK1-c4-1BB cells; Ab 0.016 ug/ml
From the text: as §1

[11] = biological target: T1, human 4-1BB, full length, on …; test: FACS, CHOK1-h4-1BB cells; Ab 0.0032 ug/ml
From the text: as §1

[12] = biological target: T2, monkey 4-1BB on CHOK1 cells; test: FACS, CHOK1-c4-1BB cells; Ab 0.0032 ug/ml
From the text: as §1

[13] = biological target: T1, human 4-1BB, full length, on …; test: FACS, CHOK1-h4-1BB cells; Ab 0.00013 ug/ml
From the text: as §1

[14] = biological target: T1, human 4-1BB, full length, on …; test: FACS, CHOK1-h4-1BB cells; Ab 0.00064 ug/ml
From the text: as §1

[15] = biological target: T2, monkey 4-1BB on CHOK1 cells; test: FACS, CHOK1-c4-1BB cells; Ab 0.00013 ug/ml
From the text: as §1

[16] = biological target: T2, monkey 4-1BB on CHOK1 cells; test: FACS, CHOK1-c4-1BB cells; Ab 0.00064 ug/ml
From the text: as §1

[17] = biological target: T3, hFc-tagged human 4-1BB extracellular domain protein (4-1BB-hFc) (human, UniProt Q07011 24-186, limits assumed); test: ELISA: 4-1BB-hFc coated at 0.5 µg/mL, his-muCD8a-4-1BBL titrated, detection by biotin anti-mouse CD8a and streptavidin-HRP, OD450
T3 construct: also called immunogen A; 4-1BB^ECD-hFc; not shown: human IgG Fc fragment (hFc) of the pCpC vector

T1 sequence (Q07011 24-255): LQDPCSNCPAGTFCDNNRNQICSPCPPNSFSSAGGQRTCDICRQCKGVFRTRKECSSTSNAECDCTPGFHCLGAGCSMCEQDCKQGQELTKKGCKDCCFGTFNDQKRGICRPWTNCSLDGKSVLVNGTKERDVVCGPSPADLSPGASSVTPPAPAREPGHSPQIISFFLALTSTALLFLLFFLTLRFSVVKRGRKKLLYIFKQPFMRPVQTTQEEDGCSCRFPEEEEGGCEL

- average fluorescence intensity [1]: 390 MFI
- average fluorescence intensity [2]: 479 MFI
- average fluorescence intensity [3]: 458 MFI
- average fluorescence intensity [4]: 552 MFI
- average fluorescence intensity [5]: 154 MFI
- average fluorescence intensity [6]: 204 MFI
- average fluorescence intensity [7]: 43.1 MFI
- average fluorescence intensity [8]: 51.1 MFI
- average fluorescence intensity [9]: 12.7 MFI
- average fluorescence intensity [10]: 15.2 MFI
- average fluorescence intensity [11]: 4.6 MFI
- average fluorescence intensity [12]: 5.4 MFI
- average fluorescence intensity [13]: 2 MFI
- average fluorescence intensity [14]: 2.5 MFI
- average fluorescence intensity [15]: 2.2 MFI
- average fluorescence intensity [16]: 2.9 MFI
B1: 100F3C4 (antibody, V domains shown)
VH: QVQLQESGPGLVKPSGTLSLTCAVSGGSISSSNWWSWVRQPPGKGLEWIGEIYHSGSTNYNPSLKSRVTMSVDKSKNQFSLELRSVTAADTAVYYCARDAVDAYYYYYGMDVWGQGTTVTVSS
VL: DIQLTQSPSFLSASVGDRVTITCRASQGISSYLAWYQQKPGKAPKLLIYAASTLQSGVPSRFSGSGSGTEFTLTISSLQPEDFATYYCQHLNSYPFTFGPGTKVDLK

- EC50 (read off the curve) [17]: ~0.03 µg/mL
B2: his-muCD8a-4-1BBL^ECD fusion protein (ligand, UniProt P01731 28-194, looked up)
chain: KPQAPELRIFPKKMDAELGQKVDLVCEVLGSVSQGCSWLFQNSSSKLPQPTFVVYMASSHNKITWDEKLNSSKLFSAMRDTNNKYVLTLNKFSKENEGYYFCSVISNSVMYFSSVVPVLQKVNSTTTKPVLRTPSPVHPTGTSQPQRPEDCRPRGSVKGTGLDFACDREGPELSPDDPAGLLDLRQGMFAQLVAQNVLLIDGPLSWYSDPGLAGVSLTGGLSYKEDTKELVVAKAGVYYVFFQLELRRVVAGEGSGSVSLALHLQPLRSAAGAAALALTVDLPPASSEARNSAFGFQGRLLHLSAGQRLGVHLHTEARARHAWQLTQGATVLGLFRVTPEIPAGLPSPRSE
notes: also called 4-1BB ligand protein; not shown: his-tag on the N side
